In one data set the test system is Staphylococcus aureus. Conditions: exogenous c-di-GMP; incl. methicillin-resistant strains; cited from earlier work.
Data set [1] deals with human colon carcinoma cells. As to conditions: basal and growth factor-induced; cited from earlier work.
For the next data set, the system named is S. aureus. As to conditions: murine mastitis infection; cited from earlier work.
Data set [2] can be described thus: Diguanylate cyclase (DGC) activity assay and steady-state kinetic measurement (HPLC, GTP to c-di-GMP). It counts as biochemical, Thermotoga maritima. As for the experimental part:
Enzyme assays were conducted to determine the optimal salt concentration of the DGC reaction, with the buffer that contains 50 mM Tris-HCl (pH 8.0), 20 mM MgCl2, 100 μM GTP, 10 μM Enzyme, and 0-500 mM NaCl. Enzyme assays were conducted to determine the optimal pH concentration of the DGC reaction, with the buffer that contains 50 mM Tris-HCl (pH 7.0-9.0), 250 mM NaCl, 20 mM MgCl2, 100 μM GTP, 10 μM Enzyme. Reaction mixtures were incubated in a waterbath at 55° C. for 15 minutes. After heating at 95° C. for 10 min and centrifugation at 14,000 rpm for 5 min to remove protein precipitate, the supernatant was filtered before loading onto the Eclipse XDB-C18 (4.6×150 mm) column for monitoring the turnover from GTP to c-di-GMP using an Agilent LC1200 system (Mobile phase: 20 mM Triethylammonium bicarbonate (pH 7.0, pH adjusted using acetic acid), 9% Methanol, Flow rate: 1 mL/min). For thermostability analysis, the mutant protein was incubated at 45, 55 and 65° C., aliquots of protein solution were taken out at different time points to add into the reaction mixture that contains 50 mM Tris-Cl (pH 7.5), 250 mM NaCl, 20 mM MgCl2 and 100 μM GTP. The reaction was allowed to last for 10 min before being stopped and analyzed for GTP turnover by using HPLC. For product yield and steady state kinetic measurement, the standard reaction mixture include 50 mM Tris-Cl (pH 8), 20 mM MgCl2, 300 mM NaCl, 1 μM Enzyme, 5-800 μM GTP. Reactions were incubated at 55° C. for 1-60 minutes to obtain linear range of progress. For steady kinetics, data was fitted using GraphPad (Prism) to obtain the kinetic parameters.

Data set [3] in a line: Size-exclusion chromatography, oligomeric state in solution. It counts as physicochemical, Thermotoga maritima. As to conditions: Superdex 75, 4° C., FIG. 3. The procedure: Gel filtration was performed at 4° C. using the AKTA FPLC system equipped with a Superdex 75 HR 16/60 column (Amersham Biosciences). The buffer used for gel filtration is comprised of 50 mM Tris-Cl (pH 8.0), 300 mM NaCl, 5% Glycerol, 1 mM DTT. Fractions containing the recombinant protein were concentrated using Amicon concentrator (Millipore) to a final concentration of ca. 5 mg/ml as measured using Bradford assay. Concentrated proteins were stored in −80° C. degree after flash-freeze using liquid nitrogen. Mutant proteins were expressed, purified and stored following the same procedure. The molecular weight and oligomeric state of the protein was estimated based on the standard curve generated by using the standard proteins that include albumin, ovalbumin, chemotrypsinogen, RNase A. The final yield of the recombinant protein was 12-15 mg per liter culture for the wild type the mutant enzyme.
In general terms: In gel filtration, larger molecules generally elute earlier.

A short description of data set [4]: c-di-GMP binding at the I-site of tDGC (absorption spectrum 256 nm peak, HPLC of denatured protein). Also on record: species or system Thermotoga maritima. Conditions: purified protein, FIG. 1. As for the experimental part: The observation was surprising since the synthesis of c-di-GMP from two molecules of GTP requires the DGC protein to function in its dimeric form.
However, despite the improved thermostability, we found the overall production yield was low even at high substrate concentration with prolonged incubation.

Positions count from the first letter of the chain named. Names may count otherwise. “Also recorded” adds a separate entry of the source.

For the molecule `Nc1nc2c(ncn2[C@@H]2O[C@@H]3COP(=O)(O)O[C@H]4[C@@H](O)[C@H](n5cnc6c(=O)[nH]c(N)nc65)O[C@@H]4COP(=O)(O)O[C@H]3[C@H]2O)c(=O)[nH]1` [c-di-GMP, Bis-(3′-5′)-cyclic dimeric guanosine monophosphate], the “effect on in vitro cell-cell interactions and biofilm formation” value in the data set with Staphylococcus aureus was “reduce in vitro cell-cell interactions and biofilm formation”. Further, in data set [1], the “effect on cell proliferation” value was “inhibiting basal and growth factor-induced proliferation”. For the same molecule, the “effect on colonization and biofilm formation” value in the data set with S. aureus is “inhibit colonization and biofilm formation”.

B1: R158A: tDGC diguanylate cyclase domain with I-site arginine 158 replaced by alanine (protein, listed as Thermotoga maritima)
chain: MGSSHHHHHHSSGLVPRGSHMKELEYMAYHDPLTGLPNRRYFFELGNRYLDLAKREGKKVFVLFVDLAGFKAINDTYGHLSGDEVLKTVSKRILDRVARSDVVARYGGDEFTILLYDMKEEYLKSLLERILSTFREPVRVENKHLSVTPNIGVARFPEDGENLEELLKVADMRMYKAKEMKVPYFSLS
modifications: DOMAIN (24)..(181) example of GGDEF domain
notes: tDGC diguanylate cyclase domain with I-site arginine 158 replaced by alanine
As for B1, the “NaCl concentration at which the enzyme is most efficient” value in data set [2] (0-500 mM NaCl screened, 55° C., FIG. 4) was in the range of 250 to 300 mM. Besides, the “GTP concentration above which production yield decreased (substrate inhibition)” value in data set [2] (FIG. 2, 55° C.) is “ca. 0.8 mM”. Further, the “pH at which the enzyme is most efficient” value in data set [2] (pH 7.0-9.0 screened, 55° C., FIG. 4) was 7.5. For the same molecule, the “kcat of GTP condensation” value in data set [2] (steady-state kinetics, 55° C.) worked out at 0.0433 s⁻¹. Further, the “GTP substrate turned over into c-di-GMP” value in data set [2] (under the assay conditions) is around 100%. In addition, the “oligomeric form in solution” value in data set [3] is listed as “monomer”. The “c-di-GMP binding / association with the protein” value in data set [4] is reported as “c-di-GMP is no longer associated with the protein; also recorded: abolished the c-di-GMP binding capability”.

B2: R158Q: tDGC diguanylate cyclase domain with I-site arginine 158 replaced by glutamine (protein, listed as Thermotoga maritima)
chain: B1 chain with A98Q
modifications: DOMAIN (24)..(181) example of GGDEF domain
notes: tDGC diguanylate cyclase domain with I-site arginine 158 replaced by glutamine
In the case of B2, in data set [4], the “c-di-GMP binding / association with the protein” value was “abolished the c-di-GMP binding capability”.

These data come from patent publication US8859237B2, “Diguanylate cyclase method of producing the same and its use in the manufacture of cyclic-di-GMP and analogues thereof” (priority 2009, dated 2014).
